Substitutions are numbered along the chain they refer to. Names may count otherwise.
B1: H2M1938N (antibody, V domains shown)
VH: EVQLVESGGGVVRPGGSLRLSCAASGFTFDDYGMSWVRQVPGKGLEWVSGLNWNGGITGYTDSVKGRFTISRDNAKNSLYLQMNSLRAEDTAFYHCARDSGDQDAFDIWGQGTMVTVSS
VL: QIVMTQSPATLSVSPGERATLSCRASQSITPYLAWYQQKPGQTPRLLIYGVSTRATGIPARFSGSGSGTEFTLTISSLQSEDFAVYYCQQYDNWYTFGQGTKLEIK
notes: Hybridoma chimeric antibody: human variable domains, mouse IgG2 Fc (H2M prefix)
B2: H1M1828N (antibody, V domains shown)
VH: EVQLVESGGGLVQPGRSLRLSCAASGFTFDDYAMYWVRQAPGKGLEWVSGISWNSGSIGYADSVKGRFTISRDNAKNSLYLQMDSLRAEDTALYYCARDMMEVDLYGMDVWGQGTTVTVSS
VL: DIQMTQSPSSVSASVGDRVTITCRASQDISSWLAWYQQKPGTAPKFLIYETSSLQSGVPSRFSGSGSGTDFILTISSLQPEDFATYYCQQTDSFPHTFGQGTKLEIR
notes: Hybridoma chimeric antibody: human variable domains, mouse constant domains (H1M prefix, mouse Fc)
B3: H2M1829N (antibody, V domains shown)
VH: EVQLVESGGGVVRPGGSLRLSCVASGFTFDDYGMSWVRQAPGKGLECVSGINWNGGSTDYADSVKGRFTISRDNAKNSLYLQMNSLRAEDTALYHCARDGGDWDYFDLWGRGTLVTVSS
VL: EILMTQSPATLSVSPGERATLSCRASQSVSSNLAWYQQKPGQAPRLLIYGASTRATGIPARFSGSGSGTEFTLTISSLQSEDFAIYYCQEYNDWPLTFGGGTKVEIK
notes: as for B1
B4: H2M1827N (antibody, V domains shown)
VH: B3 VH with V23A, N52S, S57N
VL: B3 VL
notes: as for B1
B5: H2M1824N (antibody, V domains shown)
VH: B3 VH with V23A, L93S, H95Y
VL: B3 VL with L3V, I85V, Y87F
notes: as for B1
B6: H1M1940N (antibody, V domains shown)
VH: QVQVVESGGGVVQPGRSLRLSCAASGFTFSDYGMHWVRQAPGKGLEWVAIISYDGSNKYYADSVKGRFTVSRDNSKNTLYLQLDSLRPEDAAVFYCAREGAFNLDYYAMDVWGQGTTVTVSS
VL: AIQMTQSPSSLSASVGDRVTITCRASQDIRNDLGWYQQKPGKAPNLLIYAASSLQSGVPSRFSGSGSGTDFTLTISSLQPEDFATYYCLQDSNYPLTFGGGTKVEIK
notes: as for B2
B7: H2M1821N (antibody, V domains shown)
VH: EVQLVESGGGLVQPGRSLRLSCAASGFTFDDYAMHWVRQAPGKGLEWVSSISWNSGSIGYADSVKGRFTISRDNAKNSLYLQMNSLKPEDTALYYCTKDTDYGDYLDAFDIWGQGTMVAVAS
VL: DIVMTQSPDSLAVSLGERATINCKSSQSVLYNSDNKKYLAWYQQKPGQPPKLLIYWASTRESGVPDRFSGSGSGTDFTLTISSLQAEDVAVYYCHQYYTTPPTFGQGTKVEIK
notes: as for B1
B8: H1M1819N (antibody, V domains shown)
VH: EVQLVESGGGVVRPGGSLRLSCAASGFTFDDYAMHWVRQAPGKGLEWVAGISWNSGSIDYADSVKGRFTISRDNAKNSLYLQMNSLRAGDTALYYCAKDILDLDYYGLDVWGQGTTVTVSS
VL: DIQMTQSPSSLSASVGDRVTITCRASQDISSYLAWYQQKPGKVPNLLIYDASSLQSGVPSRFSGSGSGTDFTLTLSSLQPEDFASYYCQNYNSAPYTFGQGTKLEIK
notes: as for B2
B9: H2M1936N (antibody, V domains shown)
VH: EMQLVESGGGLVQPDRSLRLSCAASGFNFDNYAIHWVRQAPGKGLEWVSGISWNSGNIGYADSVKGRFTISRDNAKNSLFLLMNSLRPDDSALYYCTRGYNWNALSPMDVWGQGTTVTVSS
VL: B8 VL with I21V, D28G, S31N, N45K, D50A, S53T, L75I, F83V, Y96M, L104V
notes: as for B1
B10: H2M1937N (antibody, V domains shown)
VH: QVQLQQWDAGLLKPSETLSLTCAVYGGSFSSYYWSWIRQPPGKGLEWIGEINHRGSTNYNPSLKSRVTISVDTSKNQFSLKLRSVTAADTAVYYCARGGVAARPDWHFFDYWGQGTLVTVSS
VL: DIQMTQSPSSLSASVGDRVTITCRASQVIRNDLGWFQQRPGKAPKRLIYAASSLQSEVPSRFSGSGSGTEFTLTITSLQPEDFATYYCLQHNSYPLTFGQGTRLEIK
notes: as for B1
B11: H2M1930N (antibody, V domains shown)
VH: EVQLVESGGGLVKPGGSLRLSCVASGFTFSSYNMNWVRQAPGKGLEWVSFISGSSNYIHYADSVKGRFTISRDNAKNALYLQMNSLRAEDTAVYYCARDDGDYDWFDPWGQGTLVTVSS
VL: EIVLTQSPGTLSLSPGERATLSCRASQSVSSSYLAWYQQKPGQAPRLLIYGTSSRATGIPDRFSGSGSGTDFTLTISRLEPEDFAVYYCQQYDNSYTFGQGTKLEIK
notes: as for B1
B12: H2M1934N (antibody, V domains shown)
VH: EVQLVQSGGGLVKPGGSLRLSCAASGFTFSNFNMNWVRQAPGKGLEWVSFISSLSTYTYYADSVKGRFTISRDNAKNSLYLQMNSLRAEDTAVYYCARDDGDHDWFDPWGQGTLVTVSS
VL: B11 VL with G9D, S32N, G51S, T52A, S54N, N94S
notes: as for B1

Target: hErbB3.mmh (soluble monomeric human ErbB3 extracellular domain with C-terminal myc-myc-hexahistidine tag) (human, UniProt P21860 20-642)
Sequence (P21860 other isoform, or with tags, fused parts or gaps): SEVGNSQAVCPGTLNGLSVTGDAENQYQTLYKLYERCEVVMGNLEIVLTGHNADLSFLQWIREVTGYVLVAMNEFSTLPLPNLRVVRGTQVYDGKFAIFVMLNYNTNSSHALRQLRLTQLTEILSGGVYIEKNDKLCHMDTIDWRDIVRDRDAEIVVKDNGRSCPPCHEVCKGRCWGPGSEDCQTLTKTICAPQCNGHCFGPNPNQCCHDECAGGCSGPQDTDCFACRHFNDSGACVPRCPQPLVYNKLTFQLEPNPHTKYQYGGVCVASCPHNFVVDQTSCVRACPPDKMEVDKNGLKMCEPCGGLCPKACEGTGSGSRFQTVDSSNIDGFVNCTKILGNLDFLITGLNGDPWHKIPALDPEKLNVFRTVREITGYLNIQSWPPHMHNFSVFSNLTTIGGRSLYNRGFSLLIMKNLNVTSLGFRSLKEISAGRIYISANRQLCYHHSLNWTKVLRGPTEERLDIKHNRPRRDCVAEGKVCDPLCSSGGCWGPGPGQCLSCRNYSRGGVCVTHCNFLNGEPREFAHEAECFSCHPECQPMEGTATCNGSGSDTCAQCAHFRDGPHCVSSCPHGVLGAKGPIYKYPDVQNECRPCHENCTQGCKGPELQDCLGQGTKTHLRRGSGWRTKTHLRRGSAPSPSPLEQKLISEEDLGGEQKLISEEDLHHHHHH
Assay: SPR (Biacore), 25 C, mAb capture format
Procedure: (§1) (Tables 2-4). Measurements were conducted on a Biacore 2000 or T100 instrument. […] Kinetic association (kₐ) and dissociation (kd) rate constants were determined by processing and fitting the data to a 1:1 binding model using Scrubber 2.0 curve fitting software.

Kd	T½	koff	kon	Binder
0.599 nM	1.33 h	0.000144 s⁻¹	241000 M⁻¹ s⁻¹	B1
0.515 nM	0.733 h	0.000265 s⁻¹	513000 M⁻¹ s⁻¹	B2
0.281 nM	2.98 h	6.46e-05 s⁻¹	230000 M⁻¹ s⁻¹	B3
0.409 nM	2.15 h	8.96e-05 s⁻¹	219000 M⁻¹ s⁻¹	B4
0.205 nM	4.23 h	4.56e-05 s⁻¹	223000 M⁻¹ s⁻¹	B5
0.477 nM	1.4 h	0.000138 s⁻¹	289000 M⁻¹ s⁻¹	B6
0.867 nM	0.967 h	0.000199 s⁻¹	229000 M⁻¹ s⁻¹	B7
1.01 nM	0.6 h	0.000322 s⁻¹	319000 M⁻¹ s⁻¹	B8
6.59 nM	0.683 h	0.000285 s⁻¹	43200 M⁻¹ s⁻¹	B9
0.682 nM	3.42 h	5.63e-05 s⁻¹	82600 M⁻¹ s⁻¹	B10
0.559 nM	1.77 h	0.000109 s⁻¹	196000 M⁻¹ s⁻¹	B11
0.438 nM	2.62 h	7.35e-05 s⁻¹	168000 M⁻¹ s⁻¹	B12

Target: T1, hErbB3.hFc (soluble dimeric human ErbB3 extracellular domain fused to human Fc) (human)
T1 construct: called dimeric
T1 sequence (chain, as listed by the source limits assumed): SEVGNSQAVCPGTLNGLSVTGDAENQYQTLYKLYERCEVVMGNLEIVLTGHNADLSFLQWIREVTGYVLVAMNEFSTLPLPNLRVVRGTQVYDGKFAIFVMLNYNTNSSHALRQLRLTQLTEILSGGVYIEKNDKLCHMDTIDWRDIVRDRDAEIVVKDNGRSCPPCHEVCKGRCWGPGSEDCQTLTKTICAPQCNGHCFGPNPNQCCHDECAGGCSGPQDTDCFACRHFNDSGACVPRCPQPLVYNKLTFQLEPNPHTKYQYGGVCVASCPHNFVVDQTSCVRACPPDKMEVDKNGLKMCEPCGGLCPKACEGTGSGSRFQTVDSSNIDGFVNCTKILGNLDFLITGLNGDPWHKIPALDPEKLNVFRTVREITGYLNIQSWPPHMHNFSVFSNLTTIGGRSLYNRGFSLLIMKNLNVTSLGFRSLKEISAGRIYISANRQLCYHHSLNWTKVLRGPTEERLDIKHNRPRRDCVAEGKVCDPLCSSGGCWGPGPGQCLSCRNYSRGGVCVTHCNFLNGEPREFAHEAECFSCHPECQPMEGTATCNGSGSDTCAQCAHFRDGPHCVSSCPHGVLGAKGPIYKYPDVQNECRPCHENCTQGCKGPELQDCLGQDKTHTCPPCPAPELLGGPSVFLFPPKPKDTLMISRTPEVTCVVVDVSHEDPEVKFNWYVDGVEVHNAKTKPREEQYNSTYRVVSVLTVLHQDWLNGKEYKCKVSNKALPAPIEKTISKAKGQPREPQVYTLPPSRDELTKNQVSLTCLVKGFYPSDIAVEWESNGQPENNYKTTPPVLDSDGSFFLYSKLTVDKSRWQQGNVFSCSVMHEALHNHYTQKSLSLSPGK
Assay: SPR (Biacore), 25 C, mAb capture format
Procedure: as §1

Kd	T½	koff	kon	Binder
0.0301 nM	14.2 h	1.36e-05 s⁻¹	451000 M⁻¹ s⁻¹	B1
0.0279 nM	4.43 h	4.34e-05 s⁻¹	1.56e+06 M⁻¹ s⁻¹	B2
0.0198 nM	22.4 h	8.61e-06 s⁻¹	436000 M⁻¹ s⁻¹	B3
0.0173 nM	25.4 h	7.58e-06 s⁻¹	439000 M⁻¹ s⁻¹	B4
0.00334 nM	134 h	1.44e-06 s⁻¹	431000 M⁻¹ s⁻¹	B5
0.0529 nM	7.92 h	2.43e-05 s⁻¹	460000 M⁻¹ s⁻¹	B6
0.0413 nM	10.1 h	1.9e-05 s⁻¹	461000 M⁻¹ s⁻¹	B7
0.122 nM	3.27 h	5.88e-05 s⁻¹	480000 M⁻¹ s⁻¹	B8
1.09 nM	2.77 h	6.97e-05 s⁻¹	64100 M⁻¹ s⁻¹	B9
0.116 nM	15.1 h	1.27e-05 s⁻¹	110000 M⁻¹ s⁻¹	B10
0.0205 nM	23.3 h	8.27e-06 s⁻¹	404000 M⁻¹ s⁻¹	B11
0.0222 nM	24.2 h	7.97e-06 s⁻¹	359000 M⁻¹ s⁻¹	B12

Target: T1, hErbB3.hFc (soluble dimeric human ErbB3 …)
Assay: blocking ELISA: antibody + 50 pM ErbB3-hFc on neuregulin1b-coated plate
Source text: To further characterize anti-hErbB3 mAbs of the present invention, their ability to block ligand binding was examined via ELISA. […] Plates were washed and non-sequestered (plate bound) ErbB3 was detected with an anti-Fc poly conjugated with horseradish peroxidase (HRP). Plates were developed with TMB (3,3′,5,5′-tetramethylbenzidine) and neutralized with sulfuric acid before reading absorbance at 450 nm on a Victor X5 plate reader. Data analysis used a sigmoidal dose-response model within Prism™ software. […] Maximal blocking for each antibody was calculated by taking the difference in absorbance from zero to 50 nM antibody on the inhibition curve, divided by the difference in absorbance from 50 pM to zero ErbB3 on the dose curve.

IC50	Maximal Blocking (%)	Binder
0.0249 nM	85%	B1
0.03 nM	95%	B2
0.0238 nM	98%	B3
0.0229 nM	98%	B4
0.0251 nM	99%	B5
0.53 nM	80%	B6
0.0285 nM	96%	B7
0.0315 nM	92%	B8
0.527 nM	91%	B9
0.044 nM	95%	B10
0.0222 nM	87%	B11
0.0261 nM	80%	B12
